According to paper PMC3192995:

Tests used:
Assay in all cases: two-hybrid
[1] = target: PwHAP5, full-length coding region, fused in pGBKT7 (yeast two-hybrid bait) (Picea wilsonii)
[2] = target: PwHAP5 N77, residues 1-77, fused in pGBKT7 (yeast two-hybrid bait) (Picea wilsonii)
[3] = target: PwHAP5 C130, residues 92-221, fused in pGBKT7 (yeast two-hybrid bait) (Picea wilsonii)

Measured: fold beta-galactosidase activity over the controls

PwFKBP12 in pGADT7-Rec (yeast two-hybrid prey) (natural protein)
20 fold: all assays above
